± gives the standard deviation of the averaged measurements.
Experiment: total protein half-life in vivo (active degradation + dilution); higher = more stable protein
[1] = E. coli NCM3722 delta-clpP delta-lon delta-hslV, growth: N-lim chemostat, doubling time 6 h
[2] = E. coli NCM3722 delta-smpB, growth: N-lim chemostat, doubling time 6 h
[3] = wild type E. coli NCM3722, growth: C-lim chemostat, doubling time 3 h
[4] = wild type E. coli NCM3722, growth: C-lim chemostat, doubling time 6 h
[5] = wild type E. coli NCM3722, growth: C-lim chemostat, doubling time 12 h
[6] = wild type E. coli NCM3722, growth: N-lim chemostat, doubling time 6 h
[7] = wild type E. coli NCM3722, growth: N-lim chemostat, doubling time 12 h
[8] = wild type E. coli NCM3722, growth: P-lim chemostat, doubling time 6 h
[9] = wild type E. coli NCM3722, growth: P-lim chemostat, doubling time 12 h
[10] = E. coli NCM3722 delta-hslV, growth: N-lim chemostat, doubling time 6 h
[11] = E. coli NCM3722 delta-clpP, growth: N-lim chemostat, doubling time 6 h
[12] = E. coli NCM3722 delta-lon, growth: N-lim chemostat, doubling time 6 h

| Sequence | total protein half-life in vivo [1] [h] | total protein half-life in vivo [2] [h] | total protein half-life in vivo [3] [h] | total protein half-life in vivo [4] [h] | total protein half-life in vivo [5] [h] | total protein half-life in vivo [6] [h] | total protein half-life in vivo [7] [h] | total protein half-life in vivo [8] [h] | total protein half-life in vivo [9] [h] | total protein half-life in vivo [10] [h] | total protein half-life in vivo [11] [h] | total protein half-life in vivo [12] [h] |
| --- | --- | --- | --- | --- | --- | --- | --- | --- | --- | --- | --- | --- |
| MSQKTLFTKSALAVAVALISTQAWSAGFQLNEFSSSGLGRAYSGEGAIADDAGNVSRNPALITMFDRPTFSAGAVYIDPDVNISGTSPSGRSLKADNIAPTAWVPNMHFVAPINDQFGWGASITSNYGLATEFNDTYAGGSVGGTTDLETMNLNLSGAYRLNNAWSFGLGFNAVYARAKIERFAGDLGQLVAGQIMQSPAGQTQQGQALAATANGIDSNTKIAHLNGNQWGFGWNAGILYELDKNNRYALTYRSEVKIDFKGNYSSDLNRAFNNYGLPIPTATGGATQSGYLTLNLPEMWEVSGYNRVDPQWAIHYSLAYTSWSQFQQLKATSTSGDTLFQKHEGFKDAYRIALGTTYYYDDNWTFRTGIAFDDSPVPAQNRSISIPDQDRFWLSAGTTYAFNKDASVDVGVSYMHGQSVKINEGPYQFESEGKAWLFGTNFNYAF | 6.74 ± 1.8 | 5.52 ± 0.67 | 3.2 ± 0.064 | 6.165 ± 0.014 | 10.9 ± 0.23 | 6.3 ± 0.37 | 11.1 ± 0.23 | 6.09 ± 0.34 | 12.2 ± 1.2 |  |  |  |
| MSQLCPCGSAVEYSLCCHPYVSGEKVAPDPEHLMRSRYCAFVMQDADYLIKTWHPSCGAAALRAELMAGFAHTEWLGLTVFEHCWQDADNIGFVSFVARFTEGGKTGAIIERSRFLKENGQWYYIDGTRPQFGRNDPCPCGSGKKFKKCCGQ | 5.73 ± 0.5 | 5.47 |  | 6.31 |  | 5.43 ± 0.68 | 8.52 ± 0.57 | 5.3 ± 0.3 |  | > 8 |  |  |
| MSQNNPLRALLDKQDILLLDGAMATELEARGCNLADSLWSAKVLVENPELIREVHLDYYRAGAQCAITASYQATPAGFAARGLDEAQSKALIGKSVELARKAREAYLAENPQAGTLLVAGSVGPYGAYLADGSEYRGDYHCSVEAFQAFHRPRVEALLDAGADLLACETLPNFSEIEALAELLTAYPRARAWFSFTLRDSEHLSDGTPLRDVVALLAGYPQVVALGINCIALENTTAALQHLHGLTVLPLVVYPNSGEHYDAVSKTWHHHGEHCAQLADYLPQWQAAGARLIGGCCRTTPADIAALKARS | 6.94 ± 1.2 | 4.6036 ± 0.0045 | 2.51 ± 0.23 | 5.009 ± 0.032 | 8.67 ± 1.6 | 5.31 ± 0.38 | 8.64 ± 0.12 | 6.15 ± 0.4 | 13 ± 0.82 | 4.45 ± 0.15 | 4.714 ± 0.0092 | 4.95 ± 0.14 |
| MSQPRPLLSPPETEEQLLAQAQQLSGYTLGELAALVGLVTPENLKRDKGWIGVLLEIWLGASAGSKPEQDFAALGVELKTIPVDSLGRPLETTFVCVAPLTGNSGVTWETSHVRHKLKRVLWIPVEGERSIPLAQRRVGSPLLWSPNEEEDRQLREDWEELMDMIVLGQVERITARHGEYLQIRPKAANAKALTEAIGARGERILTLPRGFYLKKNFTSALLARHFLIQ | 5.31 ± 1.2 | 3.89 ± 0.26 | 2.83 ± 0.25 | 5.16 ± 0.45 | 8.72 ± 0.48 | 4.92 |  | 5.79 | 8.63 ± 0.7 | 3.6 ± 0.27 | 4.23 ± 0.2 | 5.21 ± 0.38 |
| MSQQRPDRIKQMLHYLWQHRHLSTQQAMELFGYAEATVRRDFQYIVNQYPGMIRGHGCLDFDDSTDDKEYVFDVKRTLQSVAKREIAALARTMIKDGDCFFLDSGSTCLELAKCLADARVKVICNDIKIANELGCFPHVESYIIGGLIRPGYFSVGESLALEMINAFSVERAFISCDALSLETGITNATMFEVGVKTRIIQRSREVILMADHSKFDAVEPHAVATLSCIKTIISDSGLPETIAQRYQRAGCQLFLPHSIK | 6.15 ± 1.6 | 0.761 | 2 | 2.57 ± 0.049 | 3.04 ± 0.33 |  |  |  |  |  |  |  |
| MSQRITIDPVTRIEGHLRIDCEIENGVVSKAWASGTMWRGMEEIVKNRDPRDAWMIVQRICGVCTTTHALSSVRAAESALNIDVPVNAQYIRNIILAAHTTHDHIVHFYQLSALDWVDITSALQADPTKASEMLKGVSTWHLNSPEEFTKVQNKIKDLVASGQLGIFANGYWGHPAMKLPPEVNLIAVAHYLQALECQRDANRVVALLGGKTPHIQNLAVGGVANPINLDGLGVLNLERLMYIKSFIDKLSDFVEQVYKVDTAVIAAFYPEWLTRGKGAVNYLSVPEFPTDSKNGSFLFPGGYIENADLSSYRPITSHSDEYLIKGIQESAKHSWYKDEAPQAPWEGTTIPAYDGWSDDGKYSWVKSPTFYGKTVEVGPLANMLVKLAAGRESTQNKLNEIVAIYQKLTGNTLEVAQLHSTLGRIIGRTVHCCELQDILQNQYSALITNIGKGDHTTFVKPNIPATGEFKGVGFLEAPRGMLSHWMVIKDGIISNYQAVVPSTWNSGPRNFNDDVGPYEQSLVGTPVADPNKPLEVVRTIHSFDPCMACAVHVVDADGNEVVSVKVL [P0ACE0] | 5.01 ± 1.1 | 2.6 ± 0.2 | 2.07 ± 0.18 | 4.37 ± 1 | 7.59 ± 2.3 | 3.47 ± 0.036 | 4.62 | 4.92 ± 2.1 | 10.7 ± 4.1 | 3.87 ± 1.6 | 4.55 ± 1.2 |  |
| MSQSEFDSALPNGIGLAPYLRMKQEGMTENESRIVEWLLKPGNLSCAPAIKDVAEALAVSEAMIVKVSKLLGFSGFRNLRSALEDYFSQSEQVLPSELAFDEAPQDVVNKVFNITLRTIMEGQSIVNVDEIHRAARFFYQARQRDLYGAGGSNAICADVQHKFLRIGVRCQAYPDAHIMMMSASLLQEGDVVLVVTHSGRTSDVKAAVELAKKNGAKIICITHSYHSPIAKLADYIICSPAPETPLLGRNASARILQLTLLDAFFVSVAQLNIEQANINMQKTGAIVDFFSPGALK [P0ACS7] | 6.33 ± 0.37 | 5.56 ± 0.55 | 3.07 ± 0.4 | 6.86 ± 0.23 | 14.6 ± 1.1 | 5.77 ± 0.44 | 11.3 ± 1.8 | 6.09 ± 0.2 | 12.5 ± 1.1 | 5.5 ± 0.74 | 6 ± 0.24 | 5.71 |
| MSQVQFSHNPLFCIDIIKTYKPDFTPRVAFILGSGLGALADQIENAVAISYEKLPGFPVSTVHGHAGELVLGHLQGVPVVCMKGRGHFYEGRGMTIMTDAIRTFKLLGCELLFCTNAAGSLRPEVGAGSLVALKDHINTMPGTPMVGLNDDRFGERFFSLANAYDAEYRALLQKVAKEEGFPLTEGVFVSYPGPNFETAAEIRMMQIIGGDVVGMSVVPEVISARHCDLKVVAVSAITNMAEGLSDVKLSHAQTLAAAELSKQNFINLICGFLRKIA | 5.56 ± 0.68 | 1.93 ± 0.26 | 2 |  | 6.43 |  |  | 2.34 | 5.82 |  |  |  |
| MSQVSLSQQLKEGNLFAEQCPSREVLKHVTSRWGVLILVALREGTHRFSDLRRKIGGVSEKMLAQSLQALEQDGFLNRIAYPVVPPHVEYSLTPLGEQVSEKVAALADWIELNLPEVLAVRDERAA [P0ACN2] | 4.79 | 2.12 | 2.01 | 3.02 ± 0.26 | 3.86 |  |  |  |  |  |  | 2.18 |
| MSQVTENKVISAPVPMTPLQEFWHYFKRNKGAVVGLVYVVIVLFIAIFANWIAPYNPAEQFRDALLAPPAWQEGGSMAHLLGTDDVGRDVLSRLMYGARLSLLVGCLVVVLSLIMGVILGLIAGYFGGLVDNIIMRVVDIMLALPSLLLALVLVAIFGPSIGNAALALTFVALPHYVRLTRAAVLVEVNRDYVTASRVAGAGAMRQMFINIFPNCLAPLIVQASLGFSNAILDMAALGFLGMGAQPPTPEWGTMLSDVLQFAQSAWWVVTFPGLAILLTVLAFNLMGDGLRDALDPKLKQ [P0AEG1] | 6.11 | 5.93 ± 0.46 | 3.47 | > 8 | 12.6 ± 2.1 | 6.39 ± 0.51 | 10.9 ± 2 | 6.16 ± 0.14 | 10.8 ± 2.3 | 6.45 | 5.53 ± 0.37 | 6.14 ± 1 |
| MSRIEAVFFDCDGTLVDSEVICSRAYVTMFQEFGITLDPEEVFKRFKGVKLYEIIDIVSLEHGVTLAKTEAEHVYRAEVARLFDSELEAIEGAGALLSAITAPMCVVSNGPNNKMQHSMGKLNMLHYFPDKLFSGYDIQRWKPDPALMFHAAKAMNVNVENCILVDDSVAGAQSGIDAGMEVFYFCADPHNKPIVHPKVTTFTHLSQLPELWKARGWDITA |  |  | 2.09 | 4.76 | 9.19 |  | 2.64 |  |  |  |  | 2.73 |
| MSRKQLALFEPTLVVQALKEAVKKLNPQAQWRNPVMFIVWIGSLLTTCISIAMASGAMPGNALFSAAISGWLWITVLFANFAEALAEGRSKAQANSLKGVKKTAFARKLREPKYGAAADKVPADQLRKGDIVLVEAGDIIPCDGEVIEGGASVDESAITGESAPVIRESGGDFASVTGGTRILSDWLVIECSVNPGETFLDRMIAMVEGAQRRKTPNEIALTILLIALTIVFLLATATLWPFSAWGGNAVSVTVLVALLVCLIPTTIGGLLSAIGVAGMSRMLGANVIATSGRAVEAAGDVDVLLLDKTGTITLGNRQASEFIPAQGVDEKTLADAAQLASLADETPEGRSIVILAKQRFNLRERDVQSLHATFVPFTAQSRMSGINIDNRMIRKGSVDAIRRHVEANGGHFPTDVDQKVDQVARQGATPLVVVEGSRVLGVIALKDIVKGGIKERFAQLRKMGIKTVMITGDNRLTAAAIAAEAGVDDFLAEATPEAKLALIRQYQAEGRLVAMTGDGTNDAPALAQADVAVAMNSGTQAAKEAGNMVDLDSNPTKLIEVVHIGKQMLMTRGSLTTFSIANDVAKYFAIIPAAFAATYPQLNALNIMCLHSPDSAILSAVIFNALIIVFLIPLALKGVSYKPLTASAMLRRNLWIYGLGGLLVPFIGIKVIDLLLTVCGLV |  | 3.79 | 2.79 |  | 11.5 |  | 7.13 ± 1.7 | 7.01 ± 1.2 | 10.4 ± 0.27 | 5.02 | 5.05 | 6.41 |

Reference: the supplement of paper PMC11246515
